{"source": "patent US20120021993A1", "about": "(AJOU UNIVERSITY INDUSTRY ACADEMIC COOPERATION FOUNDATION, published 2012)", "key": {"[1]": {"target": "T1, human-derived cell death receptor 5, extracellular domain (amino acid residues 1-130), 6xHis tag (human, UniProt O14763 56-210)", "T1 construct": "extracellular domain; Expressed in E. coli; biotinylated for sorting and flow cytometry; also called DR5; TRAIL-receptor 2", "assay": "ELISA, coated target, A405", "protocol": "(§1) In order to measure the affinity and cross reactivity of the anti-DR4, -DR5 and -TNFα protein scaffold variants based on the Kringle domain structure to the target molecules, an enzyme-linked immunosorbent assay (ELISA) was performed. The target molecules DR4, DR5, TNFα and DcR1, DcR2 were attached to a 96 well EIA/RIA plate (COSTARCorning In., USA) by its reaction at 37° C. for 1 hour, and washed three times with 0.1% PBST (0.1% Tween20, pH 7.4, 137 mM NaCl, 10 mM Phosphate, 2.7 mM KCl, SIGMA-ALDRICH Co., USA) for 10 minutes. The target molecules were attached for 1 hour to a 96 well EIA/RIA plate in 1% PBSB (1% BSA, pH 7.4, 137 mM NaCl, 10 mM Phosphate, 2.7 mM KCl, SIGMA-ALDRICH Co., USA), and then washed three times with 0.1% PBST (0.1% Tween 20, pH 7.4, 137 mM NaCl, 10 mM Phosphate, 2.7 mM KCl, SIGMA-ALDRICH Co., USA) for 10 minutes. Then, the anti-DR4, -DR5 and -TNFα Kringle domain variants were bound, and washed three times with 0.1% PBST for 10 minutes. The anti-DR4, -DR5 and -TNFα Kringle domain variants were primarily bound to mouse-derived anti-c-myc 9e10 mAb (Ig Therapy, Korea), and secondarily bound to alkaline phosphatase (AP)-conjugated anti-mouse mAb (Sigma). Each of the Kringle domain variants was reacted with […] (pNPP, Sigma-aldrich Co., USA) and quantified at an absorbance of 405 nm."}, "[2]": {"target": "T2, human-derived cell death receptor 4, extracellular domain (amino acid residues 1-216), 6xHis tag (human, UniProt O00220 24-239)", "T2 construct": "extracellular domain; Expressed in E. coli; biotinylated for sorting and flow cytometry; residues 1-216; also called DR4; TRAIL-receptor 1", "assay": "yeast display, flow cytometry MFI [panel KD548]"}, "[3]": {"target": "T1, human-derived cell death receptor 5, …", "assay": "ELISA, coated target, A405", "protocol": "as §1", "remark": "listed apart in the source"}, "[4]": {"target": "T1, human-derived cell death receptor 5, …", "assay": "ELISA on coated DR5, KD548 alone, A405"}, "[5]": {"target": "T1, human-derived cell death receptor 5, …", "assay": "ELISA on coated DR5, KD548 alone, A405", "remark": "listed apart in the source"}, "[6]": {"target": "T1, human-derived cell death receptor 5, …", "assay": "ELISA, coated target, A405 [lower panel]", "protocol": "as §1"}, "[7]": {"target": "cell surface DR5 (human, UniProt O14763 56-440)", "assay": "cell-based or functional assay"}, "[8]": {"target": "T1, human-derived cell death receptor 5, …", "assay": "competitive ELISA on coated DR5, biotinylated KD548 with KD506 (amount not given), A405"}, "[9]": {"target": "T2, human-derived cell death receptor 4, …", "assay": "ELISA, coated target, A405", "protocol": "as §1"}, "[10]": {"target": "T2, human-derived cell death receptor 4, …", "assay": "ELISA, coated target, A405", "remark": "listed apart in the source"}, "[11]": {"target": "T2, human-derived cell death receptor 4, …", "assay": "competitive ELISA on coated DR4, biotinylated KD415 with TRAIL (amount not given), A405"}, "[12]": {"target": "T2, human-derived cell death receptor 4, …", "assay": "ELISA on coated DR4, KD415 alone, A405"}, "[13]": {"target": "T2, human-derived cell death receptor 4, …", "assay": "ELISA, coated target, A405 [lower panel]", "protocol": "as §1"}, "[14]": {"target": "cell surface DR4 (human, UniProt O00220 24-468)", "assay": "cell-based or functional assay"}, "[15]": {"target": "T3, DcR2 (UniProt Q9UBN6 56-211, limits assumed)", "T3 sequence (looked up)": "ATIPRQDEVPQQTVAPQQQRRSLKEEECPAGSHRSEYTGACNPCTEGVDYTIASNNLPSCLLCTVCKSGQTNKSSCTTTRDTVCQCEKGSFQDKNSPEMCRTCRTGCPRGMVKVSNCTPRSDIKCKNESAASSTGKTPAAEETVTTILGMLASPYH", "assay": "ELISA, coated target, single binder concentration not given, A405", "protocol": "as §1"}, "[16]": {"target": "T4, DcR1 (UniProt O14798 26-221, limits assumed)", "T4 sequence (looked up)": "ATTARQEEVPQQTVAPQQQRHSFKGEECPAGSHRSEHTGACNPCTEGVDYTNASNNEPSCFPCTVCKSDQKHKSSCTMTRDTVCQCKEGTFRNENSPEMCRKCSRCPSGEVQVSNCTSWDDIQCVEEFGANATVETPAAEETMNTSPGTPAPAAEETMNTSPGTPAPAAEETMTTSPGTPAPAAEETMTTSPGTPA", "assay": "ELISA, coated target, single binder concentration not given, A405", "protocol": "as §1"}, "[17]": {"target": "T2, human-derived cell death receptor 4, …", "assay": "ELISA, coated target, single binder concentration not given, A405", "protocol": "as §1"}, "[18]": {"target": "T5, TNFα, extracellular domain (amino acid residue 1-157), 6xHis tag (human, UniProt P01375 57-233)", "T5 construct": "extracellular domain; Expressed in E. coli; The printed residues 1-157 seem to count on the soluble form, not on the precursor; also called human TNFα; tumor necrosis factor alpha", "T5 sequence (P01375 other isoform, or with tags, fused parts or gaps limits assumed)": "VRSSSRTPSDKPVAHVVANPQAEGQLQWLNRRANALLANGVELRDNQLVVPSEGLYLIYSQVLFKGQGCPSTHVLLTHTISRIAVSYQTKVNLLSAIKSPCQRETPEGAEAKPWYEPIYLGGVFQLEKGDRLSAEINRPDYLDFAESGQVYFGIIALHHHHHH", "assay": "ELISA, coated target, single binder concentration not given, A405", "protocol": "as §1"}, "[19]": {"target": "T1, human-derived cell death receptor 5, …", "assay": "ELISA, coated DR5, A405"}, "[20]": {"target": "T2, human-derived cell death receptor 4, …", "assay": "sandwich ELISA: DR4 coated, binder titrated, soluble DR5 detected, A405"}, "[21]": {"target": "T2, human-derived cell death receptor 4, …", "assay": "ELISA, coated DR4, A405"}, "[22]": {"target": "T2, human-derived cell death receptor 4, …", "assay": "competitive ELISA on coated DR4, biotinylated KD413 with KD415 (amount not given), A405"}, "[23]": {"target": "T2, human-derived cell death receptor 4, …", "assay": "competitive ELISA on coated DR4, biotinylated KD413 with TRAIL (amount not given), A405"}, "[24]": {"target": "T4, DcR1", "assay": "yeast display, flow cytometry MFI [panel KD413]"}, "[25]": {"target": "T2, human-derived cell death receptor 4, …", "assay": "ELISA, coated target, A405", "protocol": "as §1, with “The anti-DR4, -DR5 and -TNFα Kringle domain variants were primarily bound to mouse-derived anti-c-myc 9e10 mAb (Ig Therapy, Korea), and secondarily bound to alkaline phosphatase (AP)-conjugated anti-mouse mAb (Sigma).” left out\nIn order to analyze the affinities of the Fc-fused anti-DR4, -DR5 and -TNFα Kringle domains to target molecules, the affinities of the Fc-fused anti-DR4, -DR5 and -TNFα Kringle domains to the target molecules were analyzed using ELISA, as described in Example 8.", "remark": "listed apart in the source"}, "[26]": {"target": "T2, human-derived cell death receptor 4, …", "assay": "ELISA on coated DR4, KD413 alone, A405"}, "[27]": {"target": "T2, human-derived cell death receptor 4, …", "assay": "ELISA, coated target, A405 [upper panel]", "protocol": "as §1"}, "[28]": {"target": "T2, human-derived cell death receptor 4, …", "assay": "ELISA on coated DR4, KD413 alone, A405", "remark": "listed apart in the source"}}, "data": [{"binder": "KD548 (designed binder, Soluble monomer from Pichia pastoris; also called anti-DR5 Kringle domain variant KD548; not shown: C-terminal myc tag-6xHis tag of pPICZaA) CHQTQGPKYDGNKDKTHKGHKCQSWTKNRPHHHGNKIENEDENRFQKNYCRNPDNKHEPWCFTHGHRDKHELCHEPRC", "values": [{"measurement": "EC50 (read off the curve)", "setting": "[1]", "result": "~600", "unit": "nM"}, {"measurement": "binding result", "setting": "[2]", "result": "binds"}, {"measurement": "EC50 (read off the curve)", "setting": "[3]", "result": "~200", "unit": "nM"}, {"measurement": "EC50 (read off the curve)", "setting": "[4]", "result": "~600", "unit": "nM"}, {"measurement": "EC50 (read off the curve)", "setting": "[5]", "result": "~900", "unit": "nM"}, {"measurement": "EC50 (read off the curve)", "setting": "[6]", "result": "~200", "unit": "nM"}, {"measurement": "EC50 (a concentration of protein causing a 50% cell death), HL60, MTT assay", "setting": "[7]", "result": 260, "unit": "nM"}, {"measurement": "EC50 (read off the curve)", "setting": "[8]", "result": "~600", "unit": "nM"}]}, {"binder": "KD415 (designed binder, Soluble monomer from Pichia pastoris; also called anti-DR4 Kringle domain variant KD415; not shown: C-terminal myc tag-6xHis tag of pPICZaA) CTRSKGDEYDGHKHKTNRGLRCQHWPGTKPHFHGDKIKDRHGFRLKKNYCRNPDPQDQPWCFTNRHQHKNELCNQPRC", "values": [{"measurement": "EC50 (read off the curve)", "setting": "[9]", "result": "~300", "unit": "nM"}, {"measurement": "EC50 (read off the curve)", "setting": "[10]", "result": "~300", "unit": "nM"}, {"measurement": "EC50 (read off the curve)", "setting": "[11]", "result": "~200", "unit": "nM"}, {"measurement": "EC50 (read off the curve)", "setting": "[12]", "result": "~200", "unit": "nM"}, {"measurement": "EC50 (read off the curve)", "setting": "[13]", "result": "~300", "unit": "nM"}, {"measurement": "EC50 (a concentration of protein causing a 50% cell death), HL60, MTT assay", "setting": "[14]", "result": 130, "unit": "nM"}, {"measurement": "EC50 (a concentration of protein causing a 50% cell death), Jurkat, MTT assay", "setting": "[14]", "result": 200, "unit": "nM"}, {"measurement": "binding result", "setting": "[15]", "result": "no binding"}, {"measurement": "binding result", "setting": "[16]", "result": "no binding"}]}, {"binder": "PgnKD2 (other, human, UniProt P00747 184-262, looked up, isolated Kringle domain 2; negative control; also called wild-type plasminogen Kringle domain 2) single chain: ECMHCSGENYDGKISKTMSGLECQAWDSQSPHAHGYIPSKFPNKNLKKNYCRNPDRELRPWCFTTDPNKRWELCDIPRC", "values": [{"measurement": "binding result", "setting": "[17]", "result": "no binding"}, {"measurement": "binding result", "setting": "[15]", "result": "no binding"}, {"measurement": "binding result", "setting": "[18]", "result": "no binding"}, {"measurement": "binding result", "setting": "[16]", "result": "no binding"}]}, {"binder": "KD413-KD506 hetero-dimer (designed binder, not shown: small tags and cut ends) CAKAEGTGYDGHEHKTHKGIRCQNWYKSKPHYHGHQFRDGDKIKNKKNYCRNPDPRAGPWCFTHGNRNRYELCNQPRCGGGGSGGGGSGGGGSGGGGSCPEDRGHEYDGDGDKTNRGHGCQYWDQNKPHHHGHRDKDKFKHRIKKNYCRNPDYETGPWCFTNRYRNKNELCHEPRC", "values": [{"measurement": "EC50 (read off the curve)", "setting": "[19]", "result": "~200", "unit": "nM"}, {"measurement": "EC50 (read off the curve)", "setting": "[20]", "result": "~200", "unit": "nM"}, {"measurement": "EC50 (read off the curve)", "setting": "[21]", "result": "~300", "unit": "nM"}]}, {"binder": "KD413 (designed binder, Soluble monomer from Pichia pastoris; also called anti-DR4 Kringle domain variant KD413; not shown: C-terminal myc tag-6xHis tag of pPICZaA) CAKAEGTGYDGHEHKTHKGIRCQNWYKSKPHYHGHQFRDGDKIKNKKNYCRNPDPRAGPWCFTHGNRNRYELCNQPRC", "values": [{"measurement": "EC50 (read off the curve)", "setting": "[22]", "result": "~400", "unit": "nM"}, {"measurement": "EC50 (read off the curve)", "setting": "[23]", "result": "~800", "unit": "nM"}, {"measurement": "binding result", "setting": "[24]", "result": "no binding"}, {"measurement": "EC50 (read off the curve)", "setting": "[25]", "result": "~100", "unit": "nM"}, {"measurement": "EC50 (read off the curve)", "setting": "[10]", "result": "~100", "unit": "nM"}, {"measurement": "EC50 (read off the curve)", "setting": "[26]", "result": "~800", "unit": "nM"}, {"measurement": "EC50 (a concentration of protein causing a 50% cell death), Jurkat, MTT assay", "setting": "[14]", "result": 90, "unit": "nM"}, {"measurement": "binding result", "setting": "[15]", "result": "no binding"}, {"measurement": "EC50 (read off the curve)", "setting": "[27]", "result": "~200", "unit": "nM"}, {"measurement": "EC50 (read off the curve)", "setting": "[28]", "result": "~200", "unit": "nM"}, {"measurement": "EC50 (read off the curve)", "setting": "[21]", "result": "~200", "unit": "nM"}]}]}
